Experimental data as given in patent US6767890 (COASTSIDE BIO RESOURCES, dated 2004).
No end group written: not given here.

What was measured:
[1] = target: T1, Interleukin-1α receptor on mouse Swiss/3T3 cells (mouse, UniProt P13504 20-576); assay: historical value of the assay laboratory, saturation analysis of [125I]IL-1 alpha on mouse Swiss/3T3 cells
T1 construct: whole, on cells; also called Interleukin-1α (assay target)
T1 sequence (looked up): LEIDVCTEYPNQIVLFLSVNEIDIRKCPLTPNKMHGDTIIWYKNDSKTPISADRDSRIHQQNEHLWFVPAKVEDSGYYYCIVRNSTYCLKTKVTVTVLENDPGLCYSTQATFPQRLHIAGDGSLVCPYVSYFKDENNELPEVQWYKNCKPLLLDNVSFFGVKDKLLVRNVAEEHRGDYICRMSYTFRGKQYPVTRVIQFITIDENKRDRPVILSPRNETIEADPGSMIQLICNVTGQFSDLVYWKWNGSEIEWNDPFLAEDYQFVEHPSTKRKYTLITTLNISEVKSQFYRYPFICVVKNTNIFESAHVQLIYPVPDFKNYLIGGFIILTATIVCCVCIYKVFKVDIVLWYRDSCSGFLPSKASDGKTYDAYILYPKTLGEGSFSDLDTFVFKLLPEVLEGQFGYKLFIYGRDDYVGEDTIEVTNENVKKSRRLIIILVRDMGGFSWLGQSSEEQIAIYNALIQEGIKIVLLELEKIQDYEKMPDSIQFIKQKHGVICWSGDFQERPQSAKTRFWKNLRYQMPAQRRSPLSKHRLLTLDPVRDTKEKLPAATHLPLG

[2] = target: Galanin receptor of rat ileum (rat); assay: cell-based or functional assay
[3] = target: Collagenase IV from human U937 cells (human, UniProt P14780 107-707); assay: cell-based or functional assay
[4] = target: T2, Cyclooxygenase-1 from ram seminal vesicle (ram (sheep), UniProt P05979 25-600); assay: cell-based or functional assay
T2 sequence (looked up): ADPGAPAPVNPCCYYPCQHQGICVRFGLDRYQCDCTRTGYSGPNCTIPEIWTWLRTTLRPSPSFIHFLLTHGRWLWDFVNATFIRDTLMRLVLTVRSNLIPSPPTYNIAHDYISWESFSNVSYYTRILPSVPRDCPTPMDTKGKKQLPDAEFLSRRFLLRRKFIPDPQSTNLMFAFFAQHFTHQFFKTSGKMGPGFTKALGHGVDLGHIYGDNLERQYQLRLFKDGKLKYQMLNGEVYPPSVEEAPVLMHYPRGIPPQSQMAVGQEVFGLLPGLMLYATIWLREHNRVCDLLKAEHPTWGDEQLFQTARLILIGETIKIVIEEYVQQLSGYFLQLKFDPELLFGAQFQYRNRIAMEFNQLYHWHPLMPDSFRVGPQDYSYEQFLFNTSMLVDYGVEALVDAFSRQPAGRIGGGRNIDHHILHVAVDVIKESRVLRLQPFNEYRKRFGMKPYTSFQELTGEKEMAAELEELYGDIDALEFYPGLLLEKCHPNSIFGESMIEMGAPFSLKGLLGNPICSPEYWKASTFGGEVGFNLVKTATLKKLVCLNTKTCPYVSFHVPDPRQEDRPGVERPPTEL

[5] = target: T3, Cyclooxygenase-2 from sheep placenta (sheep, UniProt P79208 17-603); assay: cell-based or functional assay
T3 sequence (looked up): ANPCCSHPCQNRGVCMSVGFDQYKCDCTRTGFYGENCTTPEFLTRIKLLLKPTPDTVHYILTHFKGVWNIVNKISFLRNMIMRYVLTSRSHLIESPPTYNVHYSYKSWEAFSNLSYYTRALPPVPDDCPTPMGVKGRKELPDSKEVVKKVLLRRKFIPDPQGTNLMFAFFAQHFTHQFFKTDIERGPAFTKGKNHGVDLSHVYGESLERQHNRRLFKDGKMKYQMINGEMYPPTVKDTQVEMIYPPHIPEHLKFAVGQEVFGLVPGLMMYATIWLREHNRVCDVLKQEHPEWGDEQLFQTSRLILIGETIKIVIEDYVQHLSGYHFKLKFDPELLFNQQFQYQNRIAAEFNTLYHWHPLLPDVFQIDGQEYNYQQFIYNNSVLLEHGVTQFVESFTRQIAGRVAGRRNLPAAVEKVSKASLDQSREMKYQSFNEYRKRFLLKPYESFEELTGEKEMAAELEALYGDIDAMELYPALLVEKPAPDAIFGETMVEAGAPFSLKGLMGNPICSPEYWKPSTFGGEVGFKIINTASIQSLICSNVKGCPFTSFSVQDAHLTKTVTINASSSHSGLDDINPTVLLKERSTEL

[6] = target: Phospholipase A2 from porcine pancreas (porcine, UniProt P00592 23-146); assay: cell-based or functional assay
[7] = target: Ca++/calmodulin dependent protein kinase II from rat brain (rat); assay: cell-based or functional assay
[8] = target: Protein kinase C, non-selective, from rat brain (rat); assay: cell-based or functional assay
[9] = target: Protein kinase C - γ, rabbit brain (recombinant) (rabbit, UniProt P10829 1-697, limits assumed); assay: cell-based or functional assay

Collagenase IV from human U937 cells, sequence (P14780 107-707): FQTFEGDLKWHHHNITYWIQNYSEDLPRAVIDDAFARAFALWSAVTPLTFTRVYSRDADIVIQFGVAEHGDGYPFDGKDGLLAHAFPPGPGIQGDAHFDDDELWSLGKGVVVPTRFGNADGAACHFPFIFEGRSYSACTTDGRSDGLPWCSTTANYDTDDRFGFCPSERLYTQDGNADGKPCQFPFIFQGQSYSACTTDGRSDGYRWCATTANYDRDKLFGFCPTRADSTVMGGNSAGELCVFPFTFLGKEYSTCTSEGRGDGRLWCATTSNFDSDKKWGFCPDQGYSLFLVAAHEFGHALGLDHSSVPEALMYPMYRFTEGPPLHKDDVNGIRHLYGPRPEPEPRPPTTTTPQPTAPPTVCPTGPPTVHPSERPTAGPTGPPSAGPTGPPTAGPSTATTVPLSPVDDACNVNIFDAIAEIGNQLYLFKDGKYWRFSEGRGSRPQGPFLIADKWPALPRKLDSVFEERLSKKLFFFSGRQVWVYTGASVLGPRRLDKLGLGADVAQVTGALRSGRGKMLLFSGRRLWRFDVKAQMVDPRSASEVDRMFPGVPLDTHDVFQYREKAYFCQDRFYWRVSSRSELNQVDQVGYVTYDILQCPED
Phospholipase A2 from porcine pancreas, sequence (P00592 23-146): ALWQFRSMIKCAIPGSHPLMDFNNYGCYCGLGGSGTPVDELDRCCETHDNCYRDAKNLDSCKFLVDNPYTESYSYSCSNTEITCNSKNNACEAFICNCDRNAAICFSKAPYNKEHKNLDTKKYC

B1: Interleukin-1α (ligand, UniProt P01583 113-271, looked up)
chain: SAPFSFLSNVKYNFMRIIKYEFILNDALNQSIIRANDQYLTAAALHNLDEAVKFDMGAYKSSKDDAKITVILRISKTQLYVTAQDEDQPVLLKEMPEIPKTITGSETNLLFFWETHGTKNYFTSVAHPNLFIATKQDYWVCLAGGPPSITDFQILENQA
modifications: 125I label on the radioligand
notes: also called IL-1 alpha; [125I]IL-1 alpha
Kd [1]: 0.18 nM

LPPSR (also: at least one D-amino acid, position not given here)
Agonism (contraction of rat ileum relative to 0.1 µM galanin), peptide 30 µM [2]: 0% | % Inhibition of enzyme activity, peptide 100.0 µM [3]: 2% | % Inhibition of enzyme activity, peptide 300.0 µM [4]: 2% | % Inhibition of enzyme activity, peptide 300.0 µM [5]: 2% | % Inhibition of enzyme activity, peptide 300.0 µM [6]: -11% | % Inhibition of enzyme activity, peptide 100.0 µM [7]: 12% | % Inhibition of enzyme activity, peptide 300.0 µM [8]: -6% | % Inhibition of enzyme activity, peptide 100.0 µM [9]: -6%
